# Data as given in publication PMC12691637.
# Target: cytosolic fragment of the McpN chemoreceptor (McpN_CF) (Pseudomonas aeruginosa PAO1)
# Assay: ITC; VP microcalorimeter, 25°C; 3 mM Tris, 3 mM PIPES, 3 mM MES, 5 mM 2-mercaptoethanol, pH 8.0; 10 µM cytosolic fragment in the sample cell titrated with 12.8 µL aliquots of 113 µM CheV or CheV D238E; 'Two Binding Sites' model
substance,measurement,value
CheV D238E (phosphorylation mimic) of Pseudomonas aeruginosa PAO1 (natural protein),"KD of the first event (high affinity, endothermic)",8 nM
same,"KD of the second event (lower affinity, exothermic)",3000 nM
same,N of the first event,0.5
